± gives the uncertainty stated by the source.
B1: Intersectin-2, residues 1129 to 1183; numbered along this chain, Q9NZM3 (parent)
chain: VCQVIAMYDYAANNEDELSFSKGQLINVMNKDDPDWWQGEINGVTGLFPSNYVKM

Variants of: B1
Test: abundance fitness (aPCA) (normalised: wild type 0, dead -1); higher = more abundant; growth selection in yeast, the domain comes from the species named
Settings: Homo sapiens

Abundance fitness: each site, then its substitutions
N14: H 0.02 ± 0.066, W -0.203 ± 0.039, I -0.092 ± 0.065, T -0.001 ± 0.044, R 0.007 ± 0.029, P -0.535 ± 0.062, G -0.024 ± 0.045, F -0.08 ± 0.063, A -0.038 ± 0.05, C -0.027 ± 0.061, D -0.089 ± 0.047, E -0.044 ± 0.036, Q -0.01 ± 0.056, Y -0.048 ± 0.065, V -0.099 ± 0.043, S 0.014 ± 0.046, M -0.016 ± 0.042
D9: A 0.019 ± 0.045, C -0.189 ± 0.049, M -0.177 ± 0.065, Q -0.133 ± 0.062, W -0.383 ± 0.048, K -0.189 ± 0.062, G -0.061 ± 0.03, F -0.364 ± 0.04, S -0.069 ± 0.027, H -0.025 ± 0.059, L -0.571 ± 0.05, R -0.131 ± 0.029, P -0.098 ± 0.059, N -0.039 ± 0.034, Y -0.371 ± 0.063, T -0.084 ± 0.051, E -0.117 ± 0.046, I -0.594 ± 0.085, V -0.38 ± 0.04
L18: C -0.378 ± 0.058, W -0.841 ± 0.077, S -0.854 ± 0.064, N -0.783 ± 0.18, R -0.979 ± 0.072, V -0.092 ± 0.041, T -0.778 ± 0.053, P -0.895 ± 0.18, F -0.2 ± 0.057, Q -0.704 ± 0.12, H -0.512 ± 0.076, G -0.861 ± 0.056, Y -0.966 ± 0.16, K -0.647 ± 0.082, D -1.04 ± 0.21, A -0.715 ± 0.06, M -0.046 ± 0.054, I -0.001 ± 0.058
Q24: S -0.073 ± 0.045, H -0.154 ± 0.043, W -0.038 ± 0.052, L -0.199 ± 0.037, N -0.05 ± 0.04, C -0.151 ± 0.053, F -0.015 ± 0.066, M -0.051 ± 0.033, Y -0.153 ± 0.051, G -0.073 ± 0.037, K -0.118 ± 0.045, D 0.022 ± 0.06, R -0.128 ± 0.045, E -0.007 ± 0.039, V -0.078 ± 0.034
Y10: Q -0.505 ± 0.068, R -0.063 ± 0.032, S -0.427 ± 0.035, F -0.084 ± 0.066, A -0.66 ± 0.058, I -0.494 ± 0.069, T -0.865 ± 0.08, N -0.249 ± 0.051, G -0.761 ± 0.044, K -0.144 ± 0.04, W -0.037 ± 0.037, H -0.124 ± 0.078, M -0.256 ± 0.039, P -0.913 ± 0.14, E -0.853 ± 0.1, D -0.777 ± 0.11, V -0.455 ± 0.036
Y8: C -0.011 ± 0.057, Q -0.084 ± 0.05, A -0.002 ± 0.037, S 0.001 ± 0.036, D -0.197 ± 0.065, L -0.005 ± 0.04, M -0.011 ± 0.05, P -0.787 ± 0.14, W -0.052 ± 0.05, K 0.074 ± 0.053, T -0.122 ± 0.053, H -0.162 ± 0.081, F 0.09 ± 0.063, R 0.012 ± 0.033, E -0.002 ± 0.042, G -0.063 ± 0.038, V -0.045 ± 0.036, N 0.011 ± 0.047
A11: T -0.041 ± 0.047, K 0.013 ± 0.051, W -0.117 ± 0.049, P -0.069 ± 0.038, E 0.025 ± 0.052, N -0.016 ± 0.054, F -0.055 ± 0.037, L -0.064 ± 0.031, M -0.053 ± 0.057, V -0.072 ± 0.03, C -0.048 ± 0.056, D 0.007 ± 0.042, Y -0.111 ± 0.063, H 0.042 ± 0.042, R -0.01 ± 0.04, G -0.03 ± 0.03, S -0.007 ± 0.027, Q -0.003 ± 0.052
G23: H 0.023 ± 0.065, N 0 ± 0.041, C -0.247 ± 0.059, Q -0.181 ± 0.048, A -0.161 ± 0.041, D -0.016 ± 0.057, P -1.06 ± 0.12, I -0.866 ± 0.49, V -0.903 ± 0.069, M -0.262 ± 0.051, K -0.103 ± 0.048, Y -0.047 ± 0.066, E -0.098 ± 0.047, S -0.07 ± 0.031, W -0.201 ± 0.036, R -0.195 ± 0.028, T -0.21 ± 0.048
L25: I 0.006 ± 0.04, C -0.088 ± 0.051, F -0.006 ± 0.058, H -0.054 ± 0.039, D 0.024 ± 0.065, G -0.035 ± 0.032, E 0.057 ± 0.041
S21: A 0.001 ± 0.033, V -0.032 ± 0.037, H 0.082 ± 0.062, R -0.02 ± 0.036, P -0.04 ± 0.042, I -0.045 ± 0.074, N -0.006 ± 0.047, G -0.039 ± 0.031, Q -0.137 ± 0.062, T -0.028 ± 0.046, K 0.002 ± 0.056, Y -0.12 ± 0.051, E -0.084 ± 0.052, F -0.117 ± 0.058, L -0.037 ± 0.034, D -0.021 ± 0.035, W -0.125 ± 0.053, M -0.05 ± 0.045, C -0.053 ± 0.049
F20: Q -0.844 ± 0.09, L -0.079 ± 0.036, A -0.998 ± 0.11, K -0.921 ± 0.072, P -0.919 ± 0.11, Y -0.497 ± 0.062, H -0.988 ± 0.21, V -0.357 ± 0.029, R -0.98 ± 0.078, D -1.03 ± 0.28, I -0.163 ± 0.061, M -0.26 ± 0.051, T -0.88 ± 0.054, C -0.596 ± 0.099, S -0.871 ± 0.04
S19: C -0.066 ± 0.055, A -0.045 ± 0.046, E -0.193 ± 0.06, L -0.615 ± 0.036, K -0.163 ± 0.046, H -0.123 ± 0.043, N -0.047 ± 0.058, F -0.256 ± 0.056, R -0.181 ± 0.033, Y -0.197 ± 0.04, G -0.052 ± 0.045, D -0.168 ± 0.075, P -0.166 ± 0.032, I -0.515 ± 0.058, Q -0.217 ± 0.044, W -0.313 ± 0.044, M -0.21 ± 0.036
E17: Y 0.064 ± 0.048, C -0.105 ± 0.042, I -0.215 ± 0.072, A -0.174 ± 0.04, R -0.016 ± 0.03, V -0.145 ± 0.04, N -0.271 ± 0.097, M -0.037 ± 0.044, Q -0.042 ± 0.043, F -0.11 ± 0.04, W -0.322 ± 0.054, L -0.124 ± 0.03, D -0.16 ± 0.043, P -0.756 ± 0.12, T -0.158 ± 0.049, K -0.089 ± 0.042, G -0.039 ± 0.041, H 0.048 ± 0.062
N13: F -0.092 ± 0.042, G 0.031 ± 0.039, H 0.106 ± 0.057, A -0.024 ± 0.041, C -0.047 ± 0.056, R 0.038 ± 0.047, Q 0.051 ± 0.033, K 0.042 ± 0.037, T 0.011 ± 0.037, P -0.133 ± 0.055, S 0.014 ± 0.029, Y -0.141 ± 0.069, L 0.01 ± 0.036, D -0.033 ± 0.034, E -0.017 ± 0.041, I -0.071 ± 0.05, W -0.306 ± 0.069, M -0.014 ± 0.037, V -0.003 ± 0.033
K22: T -0.064 ± 0.051, M -0.118 ± 0.032, I -0.063 ± 0.04, G -0.097 ± 0.039, V -0.074 ± 0.041, D -0.22 ± 0.052, L -0.146 ± 0.035, H -0.146 ± 0.044, A -0.027 ± 0.036, P -0.154 ± 0.043, F -0.164 ± 0.036, Q 0.033 ± 0.047, N -0.025 ± 0.063, C -0.061 ± 0.052, E -0.036 ± 0.055, S -0.084 ± 0.041, W -0.362 ± 0.052, Y -0.172 ± 0.064, R -0.121 ± 0.028
D16: N -0.068 ± 0.065, E -0.011 ± 0.057, Q -0.044 ± 0.039, G -0.02 ± 0.033, S -0.004 ± 0.033, T -0.126 ± 0.055, Y 0.047 ± 0.066, V -0.082 ± 0.044, K 0.016 ± 0.035, R 0.001 ± 0.038, M -0.066 ± 0.049, H -0.101 ± 0.057, F -0.04 ± 0.033, L -0.034 ± 0.044, I 0.109 ± 0.061, P -0.075 ± 0.058, W -0.117 ± 0.038, C -0.014 ± 0.057, A 0.004 ± 0.041
A6: Y -0.927 ± 0.19, N -0.928 ± 0.14, T 0.026 ± 0.047, H -0.923 ± 0.17, L -1.02 ± 0.073, W -1.02 ± 0.17, S -0.057 ± 0.033, P -0.585 ± 0.068, V -0.576 ± 0.048, Q -0.966 ± 0.097, I -0.988 ± 0.18, R -0.883 ± 0.056
A12: K -0.012 ± 0.072, Y -0.455 ± 0.045, S -0.056 ± 0.035, F -0.663 ± 0.11, P -0.144 ± 0.046, G -0.068 ± 0.041, D -0.503 ± 0.12, T -0.038 ± 0.035, W -0.685 ± 0.098, H -0.221 ± 0.07, M -0.129 ± 0.033, E -0.172 ± 0.062, I -0.469 ± 0.08, C -0.115 ± 0.05, V -0.334 ± 0.042, Q -0.046 ± 0.051, N 0.052 ± 0.074, L -0.578 ± 0.049
M7: K -0.139 ± 0.06, P -0.897 ± 0.088, F -0.168 ± 0.072, Y -0.036 ± 0.052, S 0.029 ± 0.032, W -0.188 ± 0.043, I 0.002 ± 0.041, G -0.081 ± 0.028, V -0.065 ± 0.045, C -0.02 ± 0.055, A -0.078 ± 0.038, N -0.088 ± 0.067, R -0.115 ± 0.039, E -0.057 ± 0.053, D 0.007 ± 0.06, Q -0.049 ± 0.053
E15: Y -0.002 ± 0.06, N -0.123 ± 0.069, V -0.014 ± 0.045, T 0.033 ± 0.049, W -0.141 ± 0.047, G -0.006 ± 0.034, A -0.03 ± 0.036, R -0.037 ± 0.03, H 0 ± 0.068, K -0.048 ± 0.059, I -0.076 ± 0.054, C -0.048 ± 0.031, F -0.12 ± 0.06, S -0.01 ± 0.039, P 0.011 ± 0.036, M -0.083 ± 0.061
